This note sets out measurements from patent publication US20040126860.

The series has as its target purified complex of human cardiac RLC, human ventricular ELC and the β-myosin heavy chain light chain binding fragment (aa778-840), P10916.

Sequence of purified complex of human cardiac RLC, human ventricular ELC and the β-myosin heavy chain light chain binding fragment (aa778-840), P10916 (P10916 2-166, chain 1 of 3): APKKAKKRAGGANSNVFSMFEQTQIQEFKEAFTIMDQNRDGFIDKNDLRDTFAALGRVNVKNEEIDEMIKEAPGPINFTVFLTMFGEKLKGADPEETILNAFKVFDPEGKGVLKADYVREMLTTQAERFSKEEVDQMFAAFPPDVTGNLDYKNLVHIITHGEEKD
Sequence of purified complex of human cardiac RLC, human ventricular ELC and the β-myosin heavy chain light chain binding fragment (aa778-840), P10916 (chain, as listed by the source, chain 2 of 3): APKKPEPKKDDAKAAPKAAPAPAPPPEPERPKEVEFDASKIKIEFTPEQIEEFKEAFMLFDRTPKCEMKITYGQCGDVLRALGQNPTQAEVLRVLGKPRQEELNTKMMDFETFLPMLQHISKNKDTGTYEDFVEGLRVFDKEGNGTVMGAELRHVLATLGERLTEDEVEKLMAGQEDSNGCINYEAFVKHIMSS
Sequence of purified complex of human cardiac RLC, human ventricular ELC and the β-myosin heavy chain light chain binding fragment (aa778-840), P10916 (chain, as listed by the source, chain 3 of 3): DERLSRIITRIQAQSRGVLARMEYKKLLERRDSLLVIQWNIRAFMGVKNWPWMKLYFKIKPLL

B1: mutant human cMLCK (ala 87 val, ala 95 glu), full length, with amino-terminal FLAG tag (protein)
chain: MATENGAVELGIQNPSTDKAPKGPTGERPLAAGKDPGPPDPKKAPDPPTLKKDAKAPASEKGDGTLAQPSTSSQGPKGEGDRGGGPVEGSAGPPEALPQQTATPETSVKKPKAEQGASGSQDPGKPRVGKKAAEGQAAARRGSPAFLHSPSCPAIISSSEKLLAKKPPSEASELTFEGVPMTHSPTDPRPAKAEEGKNILAESQKEVGEKTPGQAGQAKMQGDTSRGIEFQAVPSEKSEVGQALCLTAREEDCFQILDDCPPPPAPFPHRMVELRTGNVSSEFSMNSKEALGGGKFGAVCTCMEKATGLKLAAKVIKKQTPKDKEMVLLEIEVMNQLNHRNLIQLYAAIETPHEIVLFMEYIEGGELFERIVDEDYHLTEVDTMVFVRQICDGILFMHKMRVLHLDLKPENILCVNTTGHLVKIIDFGLARRYNPNEKLKVNFGTPEFLSPEVVNYDQISDKTDMWSMGVITYMLLSGLSPFLGDDDTETLNNVLSGNWYFDEETFEAVSDEAKDFVSNLIVKDQRARMNAAQCLAHPWLNNLAEKAKRCNRRLKSQILLKKYLMKRRWKKNFIAVSAANRFKKISSSGALMALGV
Regarding B1, the K, (printed so; presumably Km) was 17 µM and the Vmax (pmoles min^-1 ng^-1) came to 216.

B2: human cardiac myosin light chain kinase (cMLCK), full length, wild type, with amino-terminal FLAG tag (protein)
chain: MATENGAVELGIQNPSTDKAPKGPTGERPLAAGKDPGPPDPKKAPDPPTLKKDAKAPASEKGDGTLAQPSTSSQGPKGEGDRGGGPAEGSAGPPAALPQQTATPETSVKKPKAEQGASGSQDPGKPRVGKKAAEGQAAARRGSPAFLHSPSCPAIISSSEKLLAKKPPSEASELTFEGVPMTHSPTDPRPAKAEEGKNILAESQKEVGEKTPGQAGQAKMQGDTSRGIEFQAVPSEKSEVGQALCLTAREEDCFQILDDCPPPPAPFPHRMVELRTGNVSSEFSMNSKEALGGGKFGAVCTCMEKATGLKLAAKVIKKQTPKDKEMVLLEIEVMNQLNHRNLIQLYAAIETPHEIVLFMEYIEGGELFERIVDEDYHLTEVDTMVFVRQICDGILFMHKMRVLHLDLKPENILCVNTTGHLVKIIDFGLARRYNPNEKLKVNFGTPEFLSPEVVNYDQISDKTDMWSMGVITYMLLSGLSPFLGDDDTETLNNVLSGNWYFDEETFEAVSDEAKDFVSNLIVKDQRARMNAAQCLAHPWLNNLAEKAKRCNRRLKSQILLKKYLMKRRWKKNFIAVSAANRFKKISSSGALMALGV
For B2, the K, (printed so; presumably Km) is 6 µM and the Vmax (pmoles min^-1 ng^-1) was 115.
